Assay results: patent US20220293215A1

Molecular target: I-A^b (MHCII) of murine bone marrow-derived dendritic cells from C57BL/6J mice (mouse) (UniProt P14434)
Assay: MHCII peptidomics: Y3P IP of peptide-MHCII from BMDCs exposed to live Listeria, iTRAQ LC-MS/MS
Settings: scale: log2 fold change, Listeria 6 hr versus 10 min

In the case of “Listeria peptide mNRVmLPLQQmGAKMHGK (lmo1923 (aroE))”, the logFC is reported as 0.145.
